Literature values as cited in US12012453B2, “Methods for treating late-stage small cell lung cancer by administering a human anti-PD-L1 antibody, an etoposide and a platinum-based therapeutic” (ASTRAZENECA AB, priority 2019, dated 2024).

Key:
human CTLA-4 = human CTLA-4 (Homo sapiens, UniProt P16410); details: cited from earlier work
Fc receptors = details: cited from earlier work
[1] = tested on: natural killer (NK) ADCC activity; details: cited from earlier work
[2] = tested on: PD-L1-mediated suppression of human T-cell activation; details: in vitro; cited from earlier work
xenograft model = details: cited from earlier work

Sequence of human CTLA-4 (P16410 36-223): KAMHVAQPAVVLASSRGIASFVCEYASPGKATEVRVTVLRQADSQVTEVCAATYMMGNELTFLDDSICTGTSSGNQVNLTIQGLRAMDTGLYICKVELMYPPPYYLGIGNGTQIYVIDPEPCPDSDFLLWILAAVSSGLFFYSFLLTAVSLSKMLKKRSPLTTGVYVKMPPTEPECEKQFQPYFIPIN

Row | Molecule | cross-reactivity to related human proteins (human CTLA-4) | specific binding to Fc receptors (Fc receptors) | induction of NK ADCC activity [1] | relief of PD-L1-mediated suppression of human T-cell activation [2] | tumor growth inhibition (xenograft model)
1 | Tremelimumab: antibody that selectively binds a CTLA-4 polypeptide, as disclosed in U.S. Pat. No. 8,491,895 | no cross-reactivity to related human proteins | minimal specific binding to Fc receptors | does not induce natural killer (NK) antibody-dependent cell-mediated cytotoxicity (ADCC) activity | – | –
2 | Durvalumab: human IgG1 monoclonal antibody that selectively binds PD-L1 and blocks binding to PD-1 and CD80; VL SEQ ID NO: 1, VH SEQ ID NO: 2 (antibody, V domains shown) VH: EVQLVESGGGLVQPGGSLRLSCAASGFTFSRYWMSWVRQAPGKGLEWVANIKQDGSEKYYVDSVKGRFTISRDNAKNSLYLQMNSLRAEDTAVYYCAREGGWFGELAFDYWGQGTLVTVSS VL: EIVLTQSPGTLSLSPGERATLSCRASQRVSSSYLAWYQQKPGQAPRLLIYDASSRATGIPDRFSGSGSGTDFTLTISRLEPEDFAVYYCQQYGSLPWTFGQGTKVEIK | – | – | – | can relieve PD-L1-mediated suppression of human T-cell activation in vitro | inhibits tumor growth in a xenograft model via a T-cell dependent mechanism
